In the experiment the target is T1, APCDD1 bait fused to the C terminus of Fc (mouse, UniProt Q3U128 27-492).
T1 construct: mouse APCDD1, entire extracellular domain, fused to the C terminus of Fc; secreted with the mouse FZD8 signal peptide; also called Fc-bait; source: HEK293T, transiently transfected, serum-free conditioned medium; captured on proteinG; not shown: Fc (human IgG1), N-terminal, kept
The experiment can be described thus: SPR; Biacore, single-cycle kinetics/affinity, five-point dose response; bait-Fc on a proteinG chip; CC4-MBP in the mobile phase; done at Cayman Chemical. Conditions: both partners purified.

T1 sequence (Q3U128 27-492): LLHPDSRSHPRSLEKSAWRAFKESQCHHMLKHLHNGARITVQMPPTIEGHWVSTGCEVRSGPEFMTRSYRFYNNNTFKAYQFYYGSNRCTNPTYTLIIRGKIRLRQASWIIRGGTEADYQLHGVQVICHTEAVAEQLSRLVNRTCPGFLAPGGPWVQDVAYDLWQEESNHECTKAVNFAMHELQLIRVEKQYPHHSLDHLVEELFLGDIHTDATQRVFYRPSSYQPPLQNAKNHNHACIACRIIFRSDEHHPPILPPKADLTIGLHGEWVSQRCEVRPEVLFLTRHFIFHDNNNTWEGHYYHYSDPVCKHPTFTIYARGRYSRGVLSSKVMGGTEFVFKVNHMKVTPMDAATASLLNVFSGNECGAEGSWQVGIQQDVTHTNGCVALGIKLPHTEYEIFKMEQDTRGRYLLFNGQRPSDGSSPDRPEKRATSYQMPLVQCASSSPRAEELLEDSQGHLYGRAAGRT

B1: WT CC4-MBP (domain or fragment, mouse)
chain: PMRNPTDSLYCCDRAEDHACQNACKRILMSKKTEMEIVDGLIEGCKTQPLPQDPLWQCFLESSQS
notes: mouse RECK, CC domain 4 (CC4), a 4-helix bundle of 65 amino acids; also called RECK(CC4); source: E. coli SHuffle, purified (Ni-NTA)
In turn, B1 returned a Kd above 50 µM.

These data come from article PMC11107207, “Utility of protein–protein binding surfaces composed of anti-parallel alpha-helices and beta-sheets selected by phage display” (The Journal of Biological Chemistry, 2024).
